T1: rat IL-23R extracellular domain (ECD) protein (rat)
T1 construct: also called rat IL-23R ECD; F1LX96 amino acids 24-354
T1 chain: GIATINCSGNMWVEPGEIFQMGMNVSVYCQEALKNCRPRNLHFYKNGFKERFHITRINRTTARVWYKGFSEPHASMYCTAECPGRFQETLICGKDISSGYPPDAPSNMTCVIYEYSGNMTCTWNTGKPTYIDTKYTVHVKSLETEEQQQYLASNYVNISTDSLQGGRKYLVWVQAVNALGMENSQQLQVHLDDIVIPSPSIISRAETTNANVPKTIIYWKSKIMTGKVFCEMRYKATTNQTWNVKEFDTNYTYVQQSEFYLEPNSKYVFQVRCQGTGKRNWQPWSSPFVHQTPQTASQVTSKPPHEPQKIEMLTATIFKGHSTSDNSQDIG

T2: Recombinant human IL-23 receptor (IL-23R) extracellular domain (ECD) protein (human, UniProt Q5VWK5 24-355)
T2 construct: also called human IL-23R ECD; hu IL-23R ECD
T2 sequence: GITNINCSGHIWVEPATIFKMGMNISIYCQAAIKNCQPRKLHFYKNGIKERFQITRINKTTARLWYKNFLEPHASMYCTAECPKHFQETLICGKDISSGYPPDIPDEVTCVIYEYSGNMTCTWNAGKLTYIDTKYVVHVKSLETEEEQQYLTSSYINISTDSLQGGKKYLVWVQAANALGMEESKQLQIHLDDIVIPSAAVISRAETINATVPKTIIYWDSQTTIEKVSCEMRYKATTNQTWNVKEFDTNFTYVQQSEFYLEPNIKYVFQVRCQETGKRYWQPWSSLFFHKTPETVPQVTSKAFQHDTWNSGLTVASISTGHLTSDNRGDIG

T3: human IL-23R expressed on the cell surface of stably transfected iLite and HEK cell lines (human, UniProt Q5VWK5 24-629)
T3 construct: whole, on cells; Same receptor on two transfected cell lines; the cell line is named under assay; also called human IL-23R iLite cells; human IL-23R HEK cells
T3 sequence (looked up): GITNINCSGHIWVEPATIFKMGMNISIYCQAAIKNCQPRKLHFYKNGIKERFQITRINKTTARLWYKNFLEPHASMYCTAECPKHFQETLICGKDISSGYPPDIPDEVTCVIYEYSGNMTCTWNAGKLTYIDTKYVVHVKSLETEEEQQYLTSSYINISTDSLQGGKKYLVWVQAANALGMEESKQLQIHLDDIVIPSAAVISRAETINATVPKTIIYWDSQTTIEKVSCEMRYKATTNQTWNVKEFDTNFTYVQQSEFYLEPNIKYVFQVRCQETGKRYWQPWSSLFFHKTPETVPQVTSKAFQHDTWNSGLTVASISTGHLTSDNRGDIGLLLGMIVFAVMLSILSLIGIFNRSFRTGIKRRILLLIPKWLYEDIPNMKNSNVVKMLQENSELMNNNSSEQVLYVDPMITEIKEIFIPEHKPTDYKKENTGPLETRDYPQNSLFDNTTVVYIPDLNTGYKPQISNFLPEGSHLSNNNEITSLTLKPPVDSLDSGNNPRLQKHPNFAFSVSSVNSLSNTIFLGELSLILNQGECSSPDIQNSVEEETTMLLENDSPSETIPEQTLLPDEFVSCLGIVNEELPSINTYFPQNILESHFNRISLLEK


What was measured:
[1] = molecular target: T1, rat IL-23R extracellular domain (ECD) …; assay: SPR Biacore 8K, supernatant
Description: (§1) Affinity by SPR using Biacore 8K. Affinity measurements using Surface Plasmon Resonance (SPR) were performed using a Biacore 8K system (Cytiva). […] Approximately 9000-10000 RU (response units) of mAbs were immobilized. The kinetic experiments were performed at 25° C. in running buffer 1× of (HBS-P+ Buffer 10× (Cytiva #BR100671)+100 μg/ml BSA). To perform kinetic experiments, approximately 150 RU of mAbs were captured followed by injections of human IL-23R or rat IL-23R at concentrations ranging from 0.8 nM to 500 nM (in a 5-fold serial dilution). The association phase was monitored for 3 minutes at 50 μL/min, then followed by 30 minutes of buffer flow (dissociation phase). […] The collected data were processed using Biacore insight Evaluation software (Version 3.0.12.15655). The kinetic analysis of the data was performed using a Langmuir 1:1 binding model. The result for each mAb was reported in the format of Ka (On-rate), Kd (Off-rate) and KD (equilibrium dissociation constant).

[2] = molecular target: T2, Recombinant human IL-23 receptor …; assay: SPR Biacore 8K, supernatant, analysis 2
Description: as §1

[3] = molecular target: T3, human IL-23R expressed on the cell …; assay: flow cytometry on human IL-23R HEK cells, Expt D (8-point, 96well)
How it was run: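 Serially diluted IL-23R mAbs bound to mixed HEK-IL-23R and parental HEK cells for 30 min at 37 °C, in duplicate. After washes, 647 detection antibody geometric MFI measured on single viable (Sytox Green-negative) cells and fitted to a variable-slope dose-response against log mAb concentration.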

[4] = molecular target: T3, human IL-23R expressed on the cell …; assay: flow cytometry on human IL-23R HEK cells, Expt E (11-point, 384well)
How it was run: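 Antibody bound to HEK-IL-23R cells 30 min at 37 °C over 11 concentrations; after washes, Sytox Green added and cells run on iQue. Geometric MFI of 647 detection antibody on single viable cells fitted by variable-slope dose–response.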

Binder | binding result [1] | Kd [2] [nM] | koff [2] [s⁻¹] | kon [2] [M⁻¹ s⁻¹] | EC50 [3] [nM] | EC50 [4] [nM] | MFI (6.4 nM) [4] [MFI]
I23RB74 (antibody, mouse IgG2a, kappa, V domains shown, mouse immunization; mouse IgG2a/kappa) VH: DVQLQESGPGLVKPSQSLSLTCSVTGYSITSGYYWNWIRQFPGNKLEWMGYISYDGSFNYNPSLKNRLSITRDTSMNQFFLKLNSVTSEDTATYYCARAEIYYDYDGDFDYWGQGTTLTVSS VL: DIVLTQSPASLAVSLGQRATISCRASKSVSTSGSNFLHWYQQKPGQPPKLLIYFASNLESGVPARFSGSGSGTDFTLNIHPVEEEDAATYYCQHSRELPHTFGAGTKLELKR | no binding (tested: 500 nM) | 2.33 | 0.00222 | 954000 |  |  | 
I23RB102 (antibody, mouse IgG2a, kappa, V domains shown, mouse immunization; mouse IgG2a/kappa) VH: QVQLQQPGAELVKPGASVKVSCKASGYTFTKYWINWMNQRPGQGLEWIGNIYPGSISTNYNEKFKSKVTLTVDISSSTAYMQLSSLTSDDSAVYYCARGDFYALDYWGQGTTLTVSS VL: DIQMTQSPASLSVSVGETVTITCRASENIYSHITWYQLKQGKSPQLLVYASTNLADDVPSRFSGSGSGTQYSLKINSLLSEDFGTYYCQHFWGTPWTFGGGTKLEMKR | no binding (tested: 500 nM) | 18.5 | 0.00873 | 471000 |  |  | 
I23RB78 (antibody, mouse IgG2a, kappa, V domains shown, mouse immunization; mouse IgG2a/kappa) VH: EFQLQQSGGGLVKPGGSLKLSCAASGFTFSNYTMSWVRQTPEKRLKWVACISSGGGNTYYPDSVKGRFTISRDNARNTLYLQMSSLRSEDTAMYYCARRNYRRAMDYWGQGTSVTVSS VL: DIVMTQSPASLAVSLGQRATISCRASESVDSYGISFMHWYQQKPGQPPKLLIYRASNLESGIPARFSGSGSRTDFTLTINPVEADDVATYYCQQSNEDPWTFGAGTGLEIKR | no binding (tested: 500 nM) | 4.33 | 0.000774 | 179000 |  |  | 
I23RB80 (antibody, mouse IgG2a, kappa, V domains shown, mouse immunization; mouse IgG2a/kappa) VH: DVQLQESGPGLVQPSQSLSITCTVSGFSLTSYGVHWVRQSPGKGLEWLGVIWSGVSTDYNAAFISRLSISKDNSKSQVFFKMNSLQADDTAIYYCARSRGSYYFDYWGQGTTLTVSS VL: DIVMTQSQKFMSTSEGDRVNITCKASQNIRTAVAWYQQKPGQSPKPLIYLASNRHTGVPDRFTGSGSGTDFTLTISNVQSEDLAEYFCLQHWNYPLTFGAGTKLELKR | no binding (tested: 500 nM) |  |  |  |  |  | 
I23RB81 (antibody, mouse IgG2a, kappa, V domains shown, mouse immunization; mouse IgG2a/kappa) VH: DVQLQESGPGLVAPSQSLSITCTVSGFSLTSYAINWVRQPPGKGLEWLGVIWTGGGTNYNSALKSRLSISKDNSKSQLFLKMNSLQTDDTARYYCARNRDYSNYRWYFDVWGAGTSVTVSS VL: DIVMTQSHKFMSTSVGDRVSIICKASQDVSTAVAWYQQKPGQSPKLLIYSASYRYTGVPDRFTGSGSGTDFTFTISSVQAEDLAVYYCQQHYSTPLTFGAGTRLEIKR | no binding (tested: 500 nM) | 8.89 | 0.00173 | 195000 |  |  | 
I23RB67 (antibody, mouse IgG2a, kappa, V domains shown, mouse immunization; mouse IgG2a/kappa) VH: EVQLQQSGAELVKPGASVKLSCKASGYTFTSYWINWVKQRPGQGLEWIGNIYPGSSSTNYNEKFKSKATLTVDTSSSTAYMQLSSLTSDDSAVYYCARSAYGNRLAMDYWGQGTTLTVSS VL: DVVMTQSHKFMSTSVGDRVSITCKASQDVSTAVAWYQQKPGQSPKLLIYSAFYRYTGVPDRFTGSGSGTDFTFTISSVQAEDLAVYYCQQHYSTPYTFGGGTKLELKR | no binding (tested: 500 nM) | 25.4 | 0.0172 | 677000 |  |  | 
I23RB150 (antibody, mouse IgG2a, kappa, V domains shown, immunization; mouse IgG2a/kappa) VH: QIQLVQSGPELKKPGETVKISCKASAYTFTNYGMNWVKQAPGKGLKWMGWIKTNTGEPTYAEEFKGRFAFSLETSASTAYLQINNLKNEDTATYFCARSRQLGLRYYFDYWGQGTTLTVSS VL: DIVMTQSHKFMSTSVGGRVSITCKASQDVSTAVAWYQQKPGQSPRLLIYSASYRYTGVPDRFTGSGSGTDFTFTISSVQAEDLAVFYCQQHYSTPYTFGSGTRLEIKR |  |  |  |  | 0.8 | 16.2 | 103000
I23RB148 (antibody, mouse IgG2a, kappa, V domains shown, immunization; mouse IgG2a/kappa) VH: DVQLQESGPDLVKPSQSLSLTCTVTGYSITSGYNWHWIRQFPGNKLEWMGYIHSSGTTNYSPSLRSRLSITRDTSKNQFFLQLNSVTTEDTATYYCTRQLGLKAMEYWGQGTTLTVSS VL: DIVMTQSHKFMSTSVGDRVSLTCKASQEVRTAVAWYQQKPGQPPKLLIYSASYRYTGVPDRFTGSGSGTDFTFTIISVQAEDLAVYYCQQHYTTPYSFGSGTKLEIKR |  |  |  |  | 0.3 | 6 | 203000
I23RB5 (antibody, mouse IgG2a, kappa, V domains shown, phage display; human V regions, mouse IgG2a/kappa constant regions; also called negative control mAb) VH: QVQLVQSGAEVKKPGSSVKVSCKASGGTFSSYAISWVRQAPGQGLEWMGGIIPIFGTANYAQKFQGRVTITADESTSTAYMELSSLRSEDTAVYYCARDSYYSTVTYYYFDYWGQGTLVTVSS VL: not shown | no binding (tested: 500 nM) |  |  |  |  |  | 
I23RB144 (antibody, mouse IgG2a, kappa, V domains shown, immunization; mouse IgG2a/kappa) VH: EVQLQQSGPELVKPGASVKMSCKASGYTFTSYIIHWVKQKPGQGLEWIGYIDPYNDDTKYNEKFKGKATLTSDKSSSTAYMEFSSLTSEDSAVYYCARLGSINYYDGSYFDYWGQGTSVTVSS VL: DIVMTQSPLTLSVIIGQSASISCKSSQSLLDSDGKTYLNWLLQRPGQSPKRLMYLVSKLDSGVPDRFTGSGSGTDFTLKISRVEAEDLGVYYCWQGIHFPLTFGSGTRLEIKR |  |  |  |  | 13.4 | > 50 | 46200
I23RB87 (antibody, mouse IgG2a, kappa, V domains shown, mouse immunization; mouse IgG2a/kappa) VH: EFQLQQSGPELVKPGTSVKMSCKASGYTFTNYVMHWVKQKPGQGLEWIGYINPYDASPKYNEKFKGKAILTSDKSSSTAYMELSSLTSEDSAVYYCTRDAKLDYFDYWGQGTTLTVSS VL: DIVMTQTTSSLSASLGDRVTISCRASQDISNYLNWYQQKPDGTVKLLIYYTSRLHSGVPSRFSGSGSGTDFSLTISNLEQEDIATYFCQQGITLPWTFGAGTKLELKR | no binding (tested: 500 nM) | 10.9 | 0.000945 | 86500 |  |  | 
I23RB155 (antibody, mouse IgG2a, kappa, V domains shown, immunization; mouse IgG2a/kappa) VH: QVQLKESGPGLVKPSQSLSLTCSVTGYSITSGHSWNWIRQFPGNKLEWMGYISYDGTNDYNPSLKNRISITRDTSKNQFFLNLNSVTTEDTVTYYCARGGGYYGGTYRVFADWGQGTTLTVSS VL: QIVLSQSPASLAVSLGQRATISCRTSESVDTYGNSFIYWYQQKPGQPPKLLIYRASNLESGIPARFSGSGSRTDFTLTINPVEADDVATYYCQQGNKDPYTFGSGTKLEMKR |  |  |  |  | 0.9 | 10.1 | 177000
